Assay results: the supplement of paper PMC10126150
± gives the standard deviation of the averaged measurements.

What follows are sequences tested on ATP (assay: switch fluorescence ratio, 500 uM ATP over buffer (Cy3 cluster intensity, sum of 5 cycles each) (fold (ratio)); higher = stronger signal-on switching upon ATP binding; sequences stand for … in TCGTCGGCAGCGTCAGATGTGTATAAGAGACAGTTTTTTTTTTTTTTTTTTTTTTTTT…TC). Details: aptamer strand: ATP DNA aptamer (quencher-CACCTGGGGGAGTATTGCGGAGGAAGG + anchor), 100 nM annealed; ATP concentration: 500 uM.
In short: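 After annealing to 100 nM quencher-labelled ATP aptamer, Cy3-labelled switching-strand clusters on a modified Illumina MiSeq flow-cell were imaged in selection buffer. A second image followed after 15 min with 500 uM ATP at 22 °C, and five such buffer/ATP cycles were done, each separated by NaOH stripping and re-annealing. The fluorescence ratio, averaged per switch-domain sequence, is summed target-cycle over summed buffer-cycle Cy3 intensity per cluster, with clusters outside 100-1000 RFU excluded.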
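Note: ATP exposure 15 min at 22 °C before imaging.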

| Sequence | switch fluorescence ratio |
| --- | --- |
| GGGGTTATCG | 0.99 ± 0.029 |
| GGGGTTATCT | 1.01 ± 0.026 |
| GGGGTTATTA | 0.992 ± 0.017 |
| GGGGTTCACG | 0.988 ± 0.005 |
| GGGGTTCCGT | 1 ± 0.025 |
| GGGGTTCGGG | 0.992 ± 0.017 |
| GGGGTTCGTC | 1 ± 0.044 |
| GGGGTTCTCG | 1.001 ± 0.0031 |
| GGGGTTCTGC | 0.952 ± 0.039 |
| GGGGTTGCTG | 1 ± 0.024 |
| GGGGTTGGCT | 0.995 ± 0.03 |
| GGGGTTGTGT | 0.996 ± 0.026 |
| GGGGTTGTTA | 0.988 ± 0.021 |
| GGGGTTTAGC | 0.996 ± 0.015 |
| GGGGTTTATG | 0.975 ± 0.028 |
| GGGGTTTCTC | 1.02 ± 0.031 |
| GGGGTTTTAC | 0.995 ± 0.036 |
| GGGGTTTTCA | 1.022 ± 0.0042 |
| GGGTAAAGAA | 1.01 ± 0.036 |
| GGGTAAATAG | 1.034 ± 0.007 |
| GGGTAAATGC | 1.01 ± 0.1 |
| GGGTAACGGA | 1.03 ± 0.04 |
| GGGTAACTTT | 1.08 ± 0.07 |
| GGGTAAGAG | 1.029 ± 0.0042 |
| GGGTAAGCCC | 0.987 ± 0.015 |
| GGGTAAGCCG | 0.918 ± 0.02 |

| Sequence | switch fluorescence ratio |
| --- | --- |
| GGGTAAGCTG | 1.04 ± 0.081 |
| GGGTAAGGCT | 1.01 ± 0.032 |
| GGGTAAGGGT | 1.13 ± 0.37 |
| GGGTAATGCA | 1.033 ± 0.0053 |
| GGGTAATGGC | 0.971 ± 0.014 |
| GGGTACAGGA | 0.99686 ± 5.1e-05 |
| GGGTACCTAC | 1.06 ± 0.042 |
| GGGTACGAGT | 0.9314 ± 0.0031 |
| GGGTACGTTC | 1.01 ± 0.023 |
| GGGTACGTTG | 1.01 ± 0.016 |
| GGGTACGTTT | 0.97231 ± 0.00073 |
| GGGTAGAAAA | 1.01 ± 0.043 |
| GGGTAGACAG | 0.9316 ± 0.0069 |
| GGGTAGAGTT | 0.9659 ± 0.0052 |
| GGGTAGCTTG | 0.989 ± 0.03 |
| GGGTAGGTTT | 1.02 ± 0.059 |
| GGGTAGTAGT | 0.958 ± 0.035 |
| GGGTAGTCTG | 1 ± 0.049 |
| GGGTATCCTC | 0.986 ± 0.037 |
| GGGTATCCTT | 1.01 ± 0.025 |
| GGGTATGAGC | 0.969 ± 0.04 |
| GGGTATGCGG | 0.978 ± 0.042 |
| GGGTATGCTG | 0.9479 ± 0.0067 |
| GGGTATGGTT | 0.998 ± 0.028 |
| GGGTATGTTG | 0.978 ± 0.032 |
| GGGTATTATT | 1.022 ± 0.0047 |

| Sequence | switch fluorescence ratio |
| --- | --- |
| GGGTATTGGT | 0.996 ± 0.025 |
| GGGTATTTTA | 0.988 ± 0.057 |
| GGGTCAACGA | 1.03 ± 0.051 |
| GGGTCAGCTG | 0.986 ± 0.036 |
| GGGTCAGTAG | 1.032 ± 0.0087 |
| GGGTCATGTC | 0.934 ± 0.052 |
| GGGTCATTCA | 0.9922 ± 0.0049 |
| GGGTCCGCTG | 1.06 ± 0.07 |
| GGGTCCGGTC | 1.0075 ± 7.9e-05 |
| GGGTCCTGGG | 0.973 ± 0.012 |
| GGGTCGATGT | 1.02 ± 0.056 |
| GGGTCGCAGA | 1.04 ± 0.058 |
| GGGTCGCCAT | 1 ± 0.028 |
| GGGTCGGGTT | 0.972 ± 0.037 |
| GGGTCGGTTT | 1.01 ± 0.019 |
| GGGTCGTCAT | 1.01 ± 0.015 |
| GGGTCTAGGT | 0.997 ± 0.03 |
| GGGTCTCATC | 1.02 ± 0.065 |
| GGGTCTTAAT | 0.981 ± 0.031 |
| GGGTCTTATG | 1.03 ± 0.078 |
| GGGTCTTGTA | 0.99 ± 0.016 |
| GGGTCTTTGT | 0.981 ± 0.026 |
| GGGTGAAGGT | 0.9866 ± 0.0047 |
| GGGTGAAGTT | 0.984 ± 0.036 |
| GGGTGAATGT | 0.993 ± 0.041 |
| GGGTGACAAC | 1.002 ± 0.0084 |

| Sequence | switch fluorescence ratio |
| --- | --- |
| GGGTGACCAA | 0.969 ± 0.013 |
| GGGTGACGGT | 1.01 ± 0.04 |
| GGGTGAGATA | 1.07 ± 0.011 |
| GGGTGAGTG | 0.996 ± 0.016 |
| GGGTGATCGA | 0.98 ± 0.054 |
| GGGTGATGAA | 1 ± 0.045 |
| GGGTGATGGA | 0.991 ± 0.026 |
| GGGTGATGTG | 0.955 ± 0.022 |
| GGGTGCATGT | 0.99 ± 0.02 |
| GGGTGCTGGG | 0.999 ± 0.042 |
| GGGTGGAAAA | 0.997 ± 0.048 |
| GGGTGGACAG | 0.975 ± 0.017 |
| GGGTGGACGG | 0.993 ± 0.06 |
| GGGTGGAGCT | 1 ± 0.019 |
| GGGTGGAGGA | 1.008 ± 0.0038 |
| GGGTGGCACA | 1 ± 0.0046 |
| GGGTGGCAGC | 0.993 ± 0.031 |
| GGGTGGCGAC | 0.988 ± 0.014 |
| GGGTGGCTGG | 0.961 ± 0.049 |
| GGGTGGGAGG | 0.991 ± 0.034 |
| GGGTGGGGCG | 1.04 ± 0.043 |
| GGGTGGGGGG | 1.01 ± 0.037 |
| GGGTGGTTTG | 1.006 ± 0.0097 |
| GGGTGTAACT | 0.9812 ± 0.0074 |
| GGGTGTACTT | 0.991 ± 0.023 |
| GGGTGTATTT | 1.02 ± 0.011 |

| Sequence | switch fluorescence ratio |
| --- | --- |
| GGGTGTCGGT | 0.984 ± 0.024 |
| GGGTGTGAGT | 1.03 ± 0.018 |
| GGGTGTGCTT | 1.04 ± 0.029 |
| GGGTGTGTGC | 1.03 ± 0.08 |
| GGGTGTTACA | 1.05 ± 0.022 |
| GGGTGTTAGA | 1 ± 0.014 |
| GGGTTAAATT | 1.01 ± 0.038 |
| GGGTTAACTT | 0.999 ± 0.046 |
| GGGTTAATTT | 1 ± 0.028 |
| GGGTTAGCGG | 1.01 ± 0.027 |
| GGGTTAGCTG | 1.01 ± 0.081 |
| GGGTTAGGAG | 0.99 ± 0.029 |
| GGGTTATTAG | 0.986 ± 0.018 |
| GGGTTATTGA | 0.995 ± 0.01 |
| GGGTTATTTG | 1.01 ± 0.045 |
| GGGTTCAGGG | 0.977 ± 0.02 |
| GGGTTCATGT | 1.006 ± 0.0027 |
| GGGTTCATTC | 0.998 ± 0.026 |
| GGGTTCCATT | 1.023 ± 0.0075 |
| GGGTTCGTGG | 0.997 ± 0.031 |
| GGGTTCTCAG | 0.995 ± 0.024 |
| GGGTTCTGGA | 1.01 ± 0.019 |
| GGGTTGATCT | 0.993 ± 0.011 |
| GGGTTGGGGC | 0.999 ± 0.049 |
| GGGTTGGTTA | 1 ± 0.04 |
| GGGTTGTCAA | 0.975 ± 0.0099 |

| Sequence | switch fluorescence ratio |
| --- | --- |
| GGGTTGTTAC | 1.14 ± 0.069 |
| GGGTTGTTAG | 0.996 ± 0.027 |
| GGGTTGTTGG | 0.9963 ± 0.0015 |
| GGGTTGTTTC | 0.973 ± 0.027 |
| GGGTTTACGA | 1.01 ± 0.074 |
| GGGTTTACTG | 1 ± 0.022 |
| GGGTTTAGTG | 0.962 ± 0.014 |
| GGGTTTCGTT | 0.99 ± 0.05 |
| GGGTTTGGGT | 1.01 ± 0.053 |
| GGGTTTTACA | 0.9813 ± 0.0029 |
| GGGTTTTAGC | 1.03 ± 0.076 |
| GGGTTTTCCG | 1.02 ± 0.035 |
| GGGTTTTTCT | 0.99 ± 0.036 |
| GGTAAAAAGG | 0.971 ± 0.022 |
| GGTAAAGGAT | 0.991 ± 0.039 |
| GGTAACAGGG | 1.02 ± 0.032 |
| GGTAACGAGG | 0.963 ± 0.039 |
| GGTAACGTTT | 0.985 ± 0.027 |
| GGTAAGATCG | 0.9785 ± 0.0077 |
| GGTAAGGGCC | 1.01 ± 0.034 |
| GGTAATAGGG | 0.996 ± 0.036 |
| GGTAATTAAA | 0.974 ± 0.011 |
| GGTACAGGGA | 1.02 ± 0.015 |
